Assay results from patent US20250333497A1, “ACTIVATING ANTIBODIES OF RECEPTOR PROTEINS PLXDC1 AND PLXDC2” (THE REGENTS OF THE UNIVERSITY OF CALIFORNIA, priority 2022, published 2025).

How the values were obtained:
[1] = system: human lung tumor endothelial cells expressing PLXDC1; experiment: Ex vivo tumor angiogenesis model: killing of tumor endothelial cells; format: cell-based; settings: signal day 1 vs day 8, 500 nM printed for 3-G7
Description: The following protocol describes the Ex Vivo Tumor Angiogenesis Model.
1. The day before the experiment, all necessary tools were sprayed with 70% ethanol and sterilized under UV light overnight, including blade, dissecting and micro-dissecting scissors and […]. 24-well dishes were placed at 4° C. to pre-chill plates and Matrigel was thawed, 24 hours before tumor dissection.
2. 70% ethanol was sprayed on working bench. Two sterile petri dishes were prepared with 10 ml sterile PBS. The following steps 3 and 4 are necessary for mouse tumor models. For fresh human tumor, steps 3 and 4 are skipped.
3. The tumor-bearing mice were euthanized. 70% ethanol was sprayed on the mouse and the tumor was removed using sterilized dissecting tools (avoid the fur). The tumor was rinsed in petri dish with sterile PBS to remove ethanol and fur. The tumor was transferred to a new petri dish with PBS for dissection. The dish is placed on ice.
4. […]
9. When the assay was ready to be analyzed for cell death (e.g., 48 hours after drug addition), the dye mixture was prepared by mixing 6 μl of green dye to stain live cells (5 mg/ml Fluorescein diacetate or FDA in DMSO) with 30 μl of red dye (2.5 mg/ml Propidium iodide or PI in PBS) to stain dead cells in an Eppendorf tube. […]
14. Taking pictures in the red and green channels would allow not only the recording of the results but also more accurate quantitation of the results. […]

[2] = system: PLXDC1; experiment: Promotor activity in PLXDC1-expressing cells (activation of PLXDC signaling); format: cell-based
Text: This example tested some of the identified antibodies for their activity in activating PLXDC signaling.

[3] = biological target: T1, full length PLXDC1 (PLXDC1-Full) (Homo sapiens, UniProt Q8IUK5); experiment: Domain A binding specificity: binding to full length PLXDC1 expressed in transfected cells
T1 construct: expressed in transfected cells
T1 sequence (Q8IUK5 19-500): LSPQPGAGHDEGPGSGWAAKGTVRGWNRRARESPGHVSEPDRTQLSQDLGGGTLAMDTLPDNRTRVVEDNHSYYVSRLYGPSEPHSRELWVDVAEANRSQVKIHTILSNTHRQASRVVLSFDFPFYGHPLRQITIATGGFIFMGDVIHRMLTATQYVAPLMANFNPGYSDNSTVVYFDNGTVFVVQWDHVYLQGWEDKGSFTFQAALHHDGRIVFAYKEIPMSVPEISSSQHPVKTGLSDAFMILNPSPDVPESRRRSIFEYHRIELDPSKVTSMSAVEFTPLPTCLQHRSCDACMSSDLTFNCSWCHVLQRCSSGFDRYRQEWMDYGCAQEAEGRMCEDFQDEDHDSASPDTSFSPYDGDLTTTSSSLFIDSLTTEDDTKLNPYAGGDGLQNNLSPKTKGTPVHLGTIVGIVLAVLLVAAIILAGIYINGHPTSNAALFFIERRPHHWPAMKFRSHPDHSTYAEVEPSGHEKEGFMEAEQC
Text: (§1) The specific binding to Domain A of a PLXDC protein can be tested with a method described herein. In some embodiments, the method employs a PLXDC with the Domain A deleted. […] An example is Compound 369 as described above.
(§2) The Domain A-binding antibodies are 3-C11, 4-A8, 5-E2, 2-H2, 3-G6, 3-G7, 8-A7, 8-A9, 8-C9 and 8-D9.
(§3) Both full length PLXDC1 and Domain A deleted PLXDC1 (PLXDC1-dA) have an epitope tag on the N-terminus.

[4] = biological target: T2, Domain A-deleted PLXDC1 (PLXDC1-dA) (Homo sapiens, UniProt Q8IUK5); experiment: Domain A binding specificity: binding to Domain A-deleted PLXDC1 expressed in transfected cells
T2 construct: expressed in transfected cells
Text: as §1, §2, §3

[5] = system: PLXDC1; experiment: Antibody binding to PLXDC1 with and without small molecule agonist compound 369 (FIG. 5)
[6] = antibodies of Table 3 tested for ability to bind Domain A
[7] = transfected into a cell line that does not express PLXDC1, FIG. 3-4

binding to PLXDC1 [3, 6]: able to bind PLXDC1
binding to full length PLXDC1 (PLXDC1-Full) [3, 7]: only bound to full length PLXDC1
binding to PLXDC1 mutant with Domain A deleted [4, 6]: not the mutant with Domain A deleted
binding to Domain A-deleted PLXDC1 (PLXDC1-dA) [4, 7]: did not bind to Domain A-deleted PLXDC1
affinity to PLXDC1 when compound 369 was added ([5]; small molecule agonist compound 369 present, FIG. 5 upper curve): greatly higher affinity
affinity to standalone PLXDC1 ([5]; without compound 369, FIG. 5 lower curve): low nM affinity
B1: A006: VH SEQ ID NO:72, VL SEQ ID NO:73; Domain A-binding PLXDC1-activating antibody (antibody, V domains shown)
VH: QVQLVQSGAEVKKPGSSVKVSCKASGGTFSTEYISWVRQAPGQGLEWMGRIIPVLGITNYAQKFQGRVTITADESTSTAYMELSSLRSEDTAVYYCARHLGPPYLVTYSHGFDVWGQGTLVTVSS
VL: EIVMTQSPATLSVSPGERATLSCRASQSLGTNLAWYQQKPGQAPRLLIYGASTRATGIPARFSGSGSGTEFTLTISSLQSEDFAVYYCQQYYEAPPTFGQGTKVEIK
death of tumor endothelial cells expressing PLXDC1 [1]: led to the death of tumor endothelial cells expressing PLXDC1
promotor activity in PLXDC1-expressing cells ([2]; PLXDC1-expressing cells): activated the promotor activity
promotor activity in cells without PLXDC1 ([2]; cells without PLXDC1): not in cells without PLXDC1
